In paper PMC8509707:

Biological target: Recombinant His-tagged C-terminal ^ECFTO domain (CD-FTO) (human)
Test: SEC; ^BTCaM (7.6 µM) and/or CD-FTO (15.2 µM), 10 min at 4 °C, SEC650 column in SEC1 buffer (50 mM MES pH 6.5, 150 mM NaCl, 10% glycerol, 1 mM 2-OG, 0.5 mM MnCl2, 0.5 mM CaCl2)

- stoichiometry N: 2
Substance: Recombinant His-tagged C-terminal ^ECFTO domain (CD-FTO) (domain or fragment)
